Data published in article PMC11325027.
“And” between values parts separate entries of the source, which are not always exact repeats. Equal entries are not always repeated.

Key:
[1] = biological target: E. coli initiation factor 2 (IF2) (E. coli) (UniProt P0A705); assay: BLI; biotinylated protein ([…] load) immobilised on High Precision Streptavidin (SAX) tips, E. coli 70S ribosome as analyte; Octet RED96e, 30 °C, 1,000 rpm; ribosome buffer 20 mM Tris HCl pH 7.5, 60 mM NH4Cl, 7.5 mM Mg(CH3COO)2, 0.5 mM EDTA, 6 mM βME with 0.1% BSA and 0.02% Tween-20; IF2 pre-incubated with GDPNP; Kd from the fit of equilibrium responses, double-referenced
[2] = biological target: P. falciparum translation enhancing factor C-terminal domain (PTEF-CTD) (P. falciparum); assay: as above

For E. coli 70S ribosome (complex), the Kd [1] was 0.0093 µM and 0.0027 µM and 0.0015 µM and the Kd [2] was 0.426 µM and 0.313 µM and 0.515 µM.
